Data: article doi:10.1101/201277 (bioRxiv, 2017)
Where two headings read alike, the source gives them in different places.

B1: fruB proximal operator (BLI) (dsDNA)
DNA 1: ATGCATGTTGTGTGGTTCTTGAAACGTTTCAGCTCACACAGGTCC
DNA 2: GGACCTGTGTGAGCTGAAACGTTTCAAGAACCACACAACATGCAT
B2: pfkA operator (BLI) (dsDNA)
DNA 1: ATGCATGTTGTGTGGCCTGAATCAATTCAGCTCACACAGGTGTCC
DNA 2: GGACACCTGTGTGAGCTGAATTGATTCAGGCCACACAACATGCAT
B3: aceB operator (BLI) (dsDNA)
DNA 1: ATGCATGTTGTGTGGGCTGAATCGCTTAACGTCACACAGGTGTCC
DNA 2: GGACACCTGTGTGACGTTAAGCGATTCAGCCCACACAACATGCAT
B4: catabolite repressor activator protein (Cra), wild-type (natural protein, E. coli, UniProt P0ACP1 1-334, looked up)
chain: MKLDEIARLAGVSRTTASYVINGKAKQYRVSDKTVEKVMAVVREHNYHPNAVAAGLRAGRTRSIGLVIPDLENTSYTRIANYLERQARQRGYQLLIACSEDQPDNEMRCIEHLLQRQVDAIIVSTSLPPEHPFYQRWANDPFPIVALDRALDREHFTSVVGADQDDAEMLAEELRKFPAETVLYLGALPELSVSFLREQGFRTAWKDDPREVHFLYANSYEREAAAQLFEKWLETHPMPQALFTTSFALLQGVMDVTLRRDGKLPSDLAIATFGDNELLDFLQCPVLAVAQRHRDVAERVLEIVLASLDEPRKPKPGLTRIKRNLYRRGVLSRS
B5: fruB proximal operator (filter binding) (dsDNA)
DNA 1: TGTTGTGTGGTTCTTGAAACGTTTCAGCTCACACAGG
DNA 2: CCTGTGTGAGCTGAAACGTTTCAAGAACCACACAACA
B6: fruB distal operator (filter binding) (dsDNA)
DNA 1: TGTTGTGTGGGAGGCTGAATCGTTTCAATCACACAGG
DNA 2: CCTGTGTGATTGAAACGATTCAGCCTCCCACACAACA
B7: aceB operator (filter binding) (dsDNA)
DNA 1: TGTTGTGTGGGCTGAATCGCTTAACGTCACACAGG
DNA 2: CCTGTGTGACGTTAAGCGATTCAGCCCACACAACA
B8: fructose-1-kinase (FruK), recombinant, separately purified (enzyme, E. coli, UniProt P0AEW9 1-312, looked up)
chain: MSRRVATITLNPAYDLVGFCPEIERGEVNLVKTTGLHAAGKGINVAKVLKDLGIDVTVGGFLGKDNQDGFQQLFSELGIANRFQVVQGRTRINVKLTEKDGEVTDFNFSGFEVTPADWERFVTDSLSWLGQFDMVCVSGSLPSGVSPEAFTDWMTRLRSQCPCIIFDSSREALVAGLKAAPWLVKPNRRELEIWAGRKLPEMKDVIEAAHALREQGIAHVVISLGAEGALWVNASGEWIAKPPSVDVVSTVGAGDSMVGGLIYGLLMRESSEHTLRLATAVAALAVSQSNVGITDRPQLAAMMARVDLQPFN

Experiments:
[1] = biological target: T1, Cra (FruR);FruK (fructose-1-kinase, 1-phosphofructokinase) (Escherichia coli strain 3.300 …, UniProt P0ACP1;P0AEW9 1-334;1-312, |); test: BLI
[2] = biological target: T2, Cra (FruR) (Escherichia coli strain 3.300 …, UniProt P0ACP1 1-334); test: BLI
[3] = biological target: T1, Cra (FruR);FruK (fructose-1-kinase, …); test: BLI; remark: listed apart in the source
[4] = biological target: T1, Cra (FruR);FruK (fructose-1-kinase, …); test: BLI; remark: listed apart in the source
[5] = biological target: the molecule itself; test: elution from a phosphocellulose column
[6] = biological target: T2, Cra (FruR); test: filter binding
[7] = biological target: B4; test: pull-down

Binder: B1
- binding result [1]: binds
- binding result [2]: binds

Binder: B2
- binding result [3]: binds
- binding result [2]: binds

Binder: B3
- binding result [4]: binds
- binding result [2]: binds

Binder: B4
- stoichiometry N [5]: 2

Binder: B5
- Kd [6]: 0.018 nM

Binder: B6
- Kd [6]: 0.018 nM

Binder: B7
- Kd [6]: 1.7 nM

Binder: B8
- Kd [7]: < 100 nM
